Source: paper PMC12573921, “‘Mix-it-up’: accessible time-resolved cryo-EM on the millisecond timescale” (IUCrJ, 2025)

B1: E. coli GroES (natural protein, UniProt P0A6F9 1-97, looked up)
chain: MNIRPLHDRVIVKRKEVETKSAGGIVLTGSAAAKSTRGEVLAVGNGRILENGEVKPLDVKVGDIVIFNDGYGVKSEKIDNEEVLIMSESDILAIVEA
notes: GroES co-chaperonin of E. coli; purified as in Godek et al., 2024; source: T7 Express E. coli, Trc-promoted GroES/GroEL plasmid, purified (ion exchange, FFSP column at pH 4.6, Superdex 75); gift from the Steven Johnson laboratory
B2: Cowpea chlorotic mottle virus (CCMV) coat protein (natural protein)
chain: MSTVGTGKLTRAQRRAAARKNKRNTRVVQPVIVEPIASGQGKAIKAWTGYSVSKWTASCAAAEAKVTSAITISLPNELSSERNKQLKVGRVLLWLGLLPSVSGTVKSCVTETQTTAAASFQVALAVADNSKDVVAAMYPEAFKGITLEQLTADLTIYLYSSAALTEGDVIVHLEVEHVRPTFDDSFTPVY
notes: also called CCMV capsid; copies: 180

What was measured:
[1] = target: the molecule itself; assay: cryo-EM structure; 8.6 µM GroEL + 17.1 µM GroES on the grid, 83.3 mM ATP with gold fiducials sprayed with MIU, 300 ms
cryo-EM structure = target: the molecule itself; assay: cryo-EM structure

Protein | stoichiometry N [1] | binding result (cryo-EM structure)
B1 | 7 | –
B2 | – | binds
